Experimental data taken from US20180371086A1.

Molecular target: human CD3, on primary human T cells (human) (UniProt P07766)
Test: cell-based or functional assay

human CD3, on primary human T cells (human), sequence (P07766 23-207 limits assumed): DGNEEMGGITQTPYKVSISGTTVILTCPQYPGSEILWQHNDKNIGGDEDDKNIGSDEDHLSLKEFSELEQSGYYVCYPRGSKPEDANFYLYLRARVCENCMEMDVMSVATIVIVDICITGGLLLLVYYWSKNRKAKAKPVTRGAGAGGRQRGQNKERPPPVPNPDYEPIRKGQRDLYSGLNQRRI

## PGT-121.60 (antibody)
  Ki-67 EC50; CD4 T cells; donor D1597; 7552-infected CEM cells: > 100 µg/mL
  Ki-67 EC50; CD4 T cells; donor D1597; THRO-infected CEM cells: > 100 µg/mL
  Ki-67 EC50; CD4 T cells; donor D1597; uninfected CEM cells: > 100 µg/mL
  Ki-67 EC50; CD4 T cells; donor D2256; 7552-infected CEM cells: > 100 µg/mL
  Ki-67 EC50; CD4 T cells; donor D2256; THRO-infected CEM cells: > 100 µg/mL
  Ki-67 EC50; CD4 T cells; donor D2256; uninfected CEM cells: > 100 µg/mL
  Ki-67 EC50; CD4 T cells; donor D4246; 7552-infected CEM cells: > 100 µg/mL
  Ki-67 EC50; CD4 T cells; donor D4246; THRO-infected CEM cells: > 100 µg/mL
  Ki-67 EC50; CD4 T cells; donor D4246; uninfected CEM cells: > 100 µg/mL
  Ki-67 EC50; CD4 T cells; donor D4279; 7552-infected CEM cells: > 100 µg/mL
  Ki-67 EC50; CD4 T cells; donor D4279; THRO-infected CEM cells: > 100 µg/mL
  Ki-67 EC50; CD4 T cells; donor D4279; uninfected CEM cells: > 100 µg/mL
  Ki-67 EC50; CD8 T cells; donor D1597; 7552-infected CEM cells: > 100 µg/mL
  Ki-67 EC50; CD8 T cells; donor D1597; THRO-infected CEM cells: > 100 µg/mL
  Ki-67 EC50; CD8 T cells; donor D1597; uninfected CEM cells: > 100 µg/mL
  Ki-67 EC50; CD8 T cells; donor D2256; 7552-infected CEM cells: > 100 µg/mL
  Ki-67 EC50; CD8 T cells; donor D2256; THRO-infected CEM cells: > 100 µg/mL
  Ki-67 EC50; CD8 T cells; donor D2256; uninfected CEM cells: > 100 µg/mL
  Ki-67 EC50; CD8 T cells; donor D4246; 7552-infected CEM cells: > 100 µg/mL
  Ki-67 EC50; CD8 T cells; donor D4246; THRO-infected CEM cells: > 100 µg/mL
  Ki-67 EC50; CD8 T cells; donor D4246; uninfected CEM cells: > 100 µg/mL
  Ki-67 EC50; CD8 T cells; donor D4279; 7552-infected CEM cells: > 100 µg/mL
  Ki-67 EC50; CD8 T cells; donor D4279; THRO-infected CEM cells: > 100 µg/mL
  Ki-67 EC50; CD8 T cells; donor D4279; uninfected CEM cells: > 100 µg/mL
  Ki-67 Δ Emax; CD4 T cells; donor D1597; 7552-infected CEM cells: 1%
  Ki-67 Δ Emax; CD4 T cells; donor D1597; THRO-infected CEM cells: -1%
  Ki-67 Δ Emax; CD4 T cells; donor D1597; uninfected CEM cells: 1%
  Ki-67 Δ Emax; CD4 T cells; donor D2256; 7552-infected CEM cells: 0%
  Ki-67 Δ Emax; CD4 T cells; donor D2256; THRO-infected CEM cells: -2%
  Ki-67 Δ Emax; CD4 T cells; donor D2256; uninfected CEM cells: 0%
  Ki-67 Δ Emax; CD4 T cells; donor D4246; 7552-infected CEM cells: 0%
  Ki-67 Δ Emax; CD4 T cells; donor D4246; THRO-infected CEM cells: 0%
  Ki-67 Δ Emax; CD4 T cells; donor D4246; uninfected CEM cells: 0%
  Ki-67 Δ Emax; CD4 T cells; donor D4279; 7552-infected CEM cells: -1%
  Ki-67 Δ Emax; CD4 T cells; donor D4279; THRO-infected CEM cells: 1%
  Ki-67 Δ Emax; CD4 T cells; donor D4279; uninfected CEM cells: 1%
  Ki-67 Δ Emax; CD8 T cells; donor D1597; 7552-infected CEM cells: 0%
  Ki-67 Δ Emax; CD8 T cells; donor D1597; THRO-infected CEM cells: 0%
  Ki-67 Δ Emax; CD8 T cells; donor D1597; uninfected CEM cells: 0%
  Ki-67 Δ Emax; CD8 T cells; donor D2256; 7552-infected CEM cells: 0%
  Ki-67 Δ Emax; CD8 T cells; donor D2256; THRO-infected CEM cells: 0%
  Ki-67 Δ Emax; CD8 T cells; donor D2256; uninfected CEM cells: 0%
  Ki-67 Δ Emax; CD8 T cells; donor D4246; 7552-infected CEM cells: 0%
  Ki-67 Δ Emax; CD8 T cells; donor D4246; THRO-infected CEM cells: 0%
  Ki-67 Δ Emax; CD8 T cells; donor D4246; uninfected CEM cells: 0%
  Ki-67 Δ Emax; CD8 T cells; donor D4279; 7552-infected CEM cells: 0%
  Ki-67 Δ Emax; CD8 T cells; donor D4279; THRO-infected CEM cells: 0%
  Ki-67 Δ Emax; CD8 T cells; donor D4279; uninfected CEM cells: 0%
  PD-1 EC50; CD4 T cells; donor D1597; 7552-infected CEM cells: > 100 µg/mL
  PD-1 EC50; CD4 T cells; donor D1597; THRO-infected CEM cells: > 100 µg/mL
  PD-1 EC50; CD4 T cells; donor D1597; uninfected CEM cells: > 100 µg/mL
  PD-1 EC50; CD4 T cells; donor D2256; 7552-infected CEM cells: > 100 µg/mL
  PD-1 EC50; CD4 T cells; donor D2256; THRO-infected CEM cells: > 100 µg/mL
  PD-1 EC50; CD4 T cells; donor D2256; uninfected CEM cells: > 100 µg/mL
  PD-1 EC50; CD4 T cells; donor D4246; 7552-infected CEM cells: > 100 µg/mL
  PD-1 EC50; CD4 T cells; donor D4246; THRO-infected CEM cells: > 100 µg/mL
  PD-1 EC50; CD4 T cells; donor D4246; uninfected CEM cells: > 100 µg/mL
  PD-1 EC50; CD4 T cells; donor D4279; 7552-infected CEM cells: > 100 µg/mL
  PD-1 EC50; CD4 T cells; donor D4279; THRO-infected CEM cells: > 100 µg/mL
  PD-1 EC50; CD4 T cells; donor D4279; uninfected CEM cells: > 100 µg/mL
  PD-1 EC50; CD8 T cells; donor D1597; 7552-infected CEM cells: > 100 µg/mL
  PD-1 EC50; CD8 T cells; donor D1597; THRO-infected CEM cells: > 100 µg/mL
  PD-1 EC50; CD8 T cells; donor D1597; uninfected CEM cells: > 100 µg/mL
  PD-1 EC50; CD8 T cells; donor D2256; 7552-infected CEM cells: > 100 µg/mL
  PD-1 EC50; CD8 T cells; donor D2256; THRO-infected CEM cells: > 100 µg/mL
  PD-1 EC50; CD8 T cells; donor D2256; uninfected CEM cells: > 100 µg/mL
  PD-1 EC50; CD8 T cells; donor D4246; 7552-infected CEM cells: > 100 µg/mL
  PD-1 EC50; CD8 T cells; donor D4246; THRO-infected CEM cells: > 100 µg/mL
  PD-1 EC50; CD8 T cells; donor D4246; uninfected CEM cells: > 100 µg/mL
  PD-1 EC50; CD8 T cells; donor D4279; 7552-infected CEM cells: > 100 µg/mL
  PD-1 EC50; CD8 T cells; donor D4279; THRO-infected CEM cells: > 100 µg/mL
  PD-1 EC50; CD8 T cells; donor D4279; uninfected CEM cells: > 100 µg/mL
  PD-1 Δ Emax; CD4 T cells; donor D1597; 7552-infected CEM cells: 0%
  PD-1 Δ Emax; CD4 T cells; donor D1597; THRO-infected CEM cells: 1%
  PD-1 Δ Emax; CD4 T cells; donor D1597; uninfected CEM cells: 0%
  PD-1 Δ Emax; CD4 T cells; donor D2256; 7552-infected CEM cells: -2%
  PD-1 Δ Emax; CD4 T cells; donor D2256; THRO-infected CEM cells: 1%
  PD-1 Δ Emax; CD4 T cells; donor D2256; uninfected CEM cells: 3%
  PD-1 Δ Emax; CD4 T cells; donor D4246; 7552-infected CEM cells: 2%
  PD-1 Δ Emax; CD4 T cells; donor D4246; THRO-infected CEM cells: 0%
  PD-1 Δ Emax; CD4 T cells; donor D4246; uninfected CEM cells: 0%
  PD-1 Δ Emax; CD4 T cells; donor D4279; 7552-infected CEM cells: 1%
  PD-1 Δ Emax; CD4 T cells; donor D4279; THRO-infected CEM cells: -2%
  PD-1 Δ Emax; CD4 T cells; donor D4279; uninfected CEM cells: -1%
  PD-1 Δ Emax; CD8 T cells; donor D1597; 7552-infected CEM cells: 0%
  PD-1 Δ Emax; CD8 T cells; donor D1597; THRO-infected CEM cells: 0%
  PD-1 Δ Emax; CD8 T cells; donor D1597; uninfected CEM cells: 0%
  PD-1 Δ Emax; CD8 T cells; donor D2256; 7552-infected CEM cells: 0%
  PD-1 Δ Emax; CD8 T cells; donor D2256; THRO-infected CEM cells: -1%
  PD-1 Δ Emax; CD8 T cells; donor D2256; uninfected CEM cells: 0%
  PD-1 Δ Emax; CD8 T cells; donor D4246; 7552-infected CEM cells: 0%
  PD-1 Δ Emax; CD8 T cells; donor D4246; THRO-infected CEM cells: 0%
  PD-1 Δ Emax; CD8 T cells; donor D4246; uninfected CEM cells: -1%
  PD-1 Δ Emax; CD8 T cells; donor D4279; 7552-infected CEM cells: 0%
  PD-1 Δ Emax; CD8 T cells; donor D4279; THRO-infected CEM cells: 0%
  PD-1 Δ Emax; CD8 T cells; donor D4279; uninfected CEM cells: 0%
